Test results taken from IntAct's records for PubMed 31515488.

B1: Origin recognition complex subunit 6 (Homo sapiens), Q9Y5N6 (parent)
chain: MGSELIGRLAPRLGLAEPDMLRKAEEYLRLSRVKCVGLSARTTETSSAVMCLDLAASWMKCPLDRAYLIKLSGLNKETYQSCLKSFECLLGLNSNIGIRDLAVQFSCIEAVNMASKILKSYESSLPQTQQVDLDLSRPLFTSAALLSACKILKLKVDKNKMVATSGVKKAIFDRLCKQLEKIGQQVDREPGDVATPPRKRKKIVVEAPAKEMEKVEEMPHKPQKDEDLTQDYEEWKRKILENAASAQKATAE
partner: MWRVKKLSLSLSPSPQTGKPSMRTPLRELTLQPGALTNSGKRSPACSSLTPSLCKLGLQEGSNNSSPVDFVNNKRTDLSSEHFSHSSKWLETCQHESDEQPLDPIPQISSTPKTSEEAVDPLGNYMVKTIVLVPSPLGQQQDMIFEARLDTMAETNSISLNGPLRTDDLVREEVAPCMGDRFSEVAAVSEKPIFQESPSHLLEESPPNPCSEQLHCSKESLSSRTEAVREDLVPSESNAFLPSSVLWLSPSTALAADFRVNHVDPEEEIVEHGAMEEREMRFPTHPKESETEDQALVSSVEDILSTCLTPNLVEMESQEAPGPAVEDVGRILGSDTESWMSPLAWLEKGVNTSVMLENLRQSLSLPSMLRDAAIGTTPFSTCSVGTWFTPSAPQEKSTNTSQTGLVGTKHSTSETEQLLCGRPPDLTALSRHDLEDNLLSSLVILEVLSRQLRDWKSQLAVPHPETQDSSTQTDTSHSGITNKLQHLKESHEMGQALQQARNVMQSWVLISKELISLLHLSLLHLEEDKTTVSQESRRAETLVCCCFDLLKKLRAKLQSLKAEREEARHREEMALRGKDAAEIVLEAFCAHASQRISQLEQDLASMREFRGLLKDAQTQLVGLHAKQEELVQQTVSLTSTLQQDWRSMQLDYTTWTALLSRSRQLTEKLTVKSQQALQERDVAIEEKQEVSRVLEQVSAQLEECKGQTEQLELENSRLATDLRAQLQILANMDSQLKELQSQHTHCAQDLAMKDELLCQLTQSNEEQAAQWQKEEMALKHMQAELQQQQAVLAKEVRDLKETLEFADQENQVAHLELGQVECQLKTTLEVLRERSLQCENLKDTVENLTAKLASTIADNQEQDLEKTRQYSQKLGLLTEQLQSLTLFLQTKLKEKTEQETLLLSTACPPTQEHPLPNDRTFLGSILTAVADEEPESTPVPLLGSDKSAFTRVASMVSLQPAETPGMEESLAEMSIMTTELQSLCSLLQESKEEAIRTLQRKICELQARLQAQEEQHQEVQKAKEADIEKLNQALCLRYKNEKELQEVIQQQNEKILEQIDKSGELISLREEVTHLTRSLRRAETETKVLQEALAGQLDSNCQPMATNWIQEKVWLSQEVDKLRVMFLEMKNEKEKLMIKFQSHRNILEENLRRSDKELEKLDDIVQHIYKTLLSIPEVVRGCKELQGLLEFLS
B2: Notch homolog 2 N-terminal-like protein A (Homo sapiens), Q7Z3S9 (parent)
chain: MCVTYHNGTGYCKCPEGFLGEYCQHRDPCEKNRCQNGGTCVAQAMLGKATCRCASGFTGEDCQYSTSHPCFVSRPCLNGGTCHMLSRDTYECTCQVGFTGKECQWTDACLSHPCANGSTCTTVANQFSCKCLTGFTGQKCETDVNECDIPGHCQHGGTCLNLPGSYQCQCLQGFTGQYCDSLYVPCAPSPCVNGGTCRQTGDFTFECNCLPETVRRGTELWERDREVWNGKEHDEN
partner: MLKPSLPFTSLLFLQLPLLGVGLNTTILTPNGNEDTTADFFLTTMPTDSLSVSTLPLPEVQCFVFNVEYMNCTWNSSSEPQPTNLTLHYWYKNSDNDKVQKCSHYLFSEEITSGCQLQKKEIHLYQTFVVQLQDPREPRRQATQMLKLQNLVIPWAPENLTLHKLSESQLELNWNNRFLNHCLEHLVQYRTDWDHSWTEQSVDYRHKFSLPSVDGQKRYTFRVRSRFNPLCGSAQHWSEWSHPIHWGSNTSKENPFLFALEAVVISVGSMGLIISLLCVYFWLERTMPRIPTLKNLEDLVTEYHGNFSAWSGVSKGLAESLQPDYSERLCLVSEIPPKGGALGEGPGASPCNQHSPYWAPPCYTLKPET
B3: Cdc42 effector protein 4 (Homo sapiens), Q9H3Q1 (parent)
chain: MPILKQLVSSSVHSKRRSRADLTAEMISAPLGDFRHTMHVGRAGDAFGDTSFLNSKAGEPDGESLDEQPSSSSSKRSLLSRKFRGSKRSQSVTRGEREQRDMLGSLRDSALFVKNAMSLPQLNEKEAAEKGTSKLPKSLSSSPVKKANDGEGGDEEAGTEEAVPRRNGAAGPHSPDPLLDEQAFGDLTDLPVVPKATYGLKHAESIMSFHIDLGPSMLGDVLSIMDKEEWDPEEGEGGYHGDEGAAGTITQAPPYAVAAPPLARQEGKAGPDLPSLPSHALEDEGWAAAAPSPGSARSMGSHTTRDSSSLSSCTSGILEERSPAFRGPDRARAAVSRQPDKEFSFMDEEEEDEIRV
B4: UPF0193 protein EVG1 (Homo sapiens), Q9BZE7 (parent)
chain: MASQKQMEVVTKGTGFRRRPKTITYTPGTCELLRVMMKESKLTNIQQRHIMDIMKRGDALPLQCSPTSSQRVLPSKQIASPIYLPPILAARPHLRPANMCQANGAYSREQFKPQATRDLEKEKQRLQNIFATGKDMEERKRKAPPARQKAPAPELDRFEELVKEIQERKEFLADMEALGQGKQYRGIILAEISQKLREMEDIDHRRSEELRKGLATT
B5: E3 ubiquitin-protein ligase LNX (Homo sapiens), Q8TBB1 (parent)
chain: MNQPESANDPEPLCAVCGQAHSLEENHFYSYPEEVDDDLICHICLQALLDPLDTPCGHTYCTLCLTNFLVEKDFCPMDRKPLVLQHCKKSSILVNKLLNKLLVTCPFREHCTQVLQRCDLEHHFQTSCKGASHYGLTKDRKRRSQDGCPDGCASLTATAPSPEVSAAATISLMTDEPGLDNPAYVSSAEDGQPAISPVDSGRSNRTRARPFERSTIRSRSFKKINRALSVLRRTKSGSAVANHADQGRENSENTTAPEVFPRLYHLIPDGEITSIKINRVDPSESLSIRLVGGSETPLVHIIIQHIYRDGVIARDGRLLPGDIILKVNGMDISNVPHNYAVRLLRQPCQVLWLTVMREQKFRSRNNGQAPDAYRPRDDSFHVILNKSSPEEQLGIKLVRKVDEPGVFIFNVLDGGVAYRHGQLEENDRVLAINGHDLRYGSPESAAHLIQASERRVHLVVSRQVRQRSPDIFQEAGWNSNGSWSPGPGERSNTPKPLHPTITCHEKVVNIQKDPGESLGMTVAGGASHREWDLPIYVISVEPGGVISRDGRIKTGDILLNVDGVELTEVSRSEAVALLKRTSSSIVLKALEVKEYEPQEDCSSPAALDSNHNMAPPSDWSPSWVMWLELPRCLYNCKDIVLRRNTAGSLGFCIVGGYEEYNGNKPFFIKSIVEGTPAYNDGRIRCGDILLAVNGRSTSGMIHACLARLLKELKGRITLTIVSWPGTFL
B6: Microtubule-associated tumor suppressor candidate 2 (Homo sapiens), Q5JR59-3 (parent)
chain: MGHCCCKPYNCLQCLDKTNESALVKEKELSIELANIRDEVAFHTAKCEKLQKEKEELERRFEDEVKRLGWQQQAELQELEERLQLQFEAEMARLQEEHGDQLLSIRCQHQEQVEDLTASHDAALLEMENNHTVAITILQDDHDHKVQELMSTHELEKKELEENFEKLRLSLQDQVDTLTFQSQSLRDRARRFEEALRKNTEEQLEIALAPYQHLEEDMKSLKQVLEMKNQQIHEQEKKILELEKLAEKNIILEEKIQVLQQQNEDLKARIDQNTVVTRQLSEENANLQEYVEKETQEKKRLSRTNEELLWKLQTGDPTSPIKLSPTSPVYRGSSSGPSSPARVSTTPR
partner: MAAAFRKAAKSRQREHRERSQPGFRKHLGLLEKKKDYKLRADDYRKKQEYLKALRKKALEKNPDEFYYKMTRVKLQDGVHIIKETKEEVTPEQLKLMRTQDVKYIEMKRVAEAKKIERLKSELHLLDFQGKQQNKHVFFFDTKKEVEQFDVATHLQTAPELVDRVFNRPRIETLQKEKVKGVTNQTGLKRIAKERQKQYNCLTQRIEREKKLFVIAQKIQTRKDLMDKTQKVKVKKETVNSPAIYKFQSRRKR
B7: Isoform 1 of Protein quaking (Homo sapiens), Q96PU8-1 (parent)
chain: MVGEMETKEKPKPTPDYLMQLMNDKKLMSSLPNFCGIFNHLERLLDEEISRVRKDMYNDTLNGSTEKRSAELPDAVGPIVQLQEKLYVPVKEYPDFNFVGRILGPRGLTAKQLEAETGCKIMVRGKGSMRDKKKEEQNRGKPNWEHLNEDLHVLITVEDAQNRAEIKLKRAVEEVKKLLVPAAEGEDSLKKMQLMELAILNGTYRDANIKSPALAFSLAATAQAAPRIITGPAPVLPPAALRTPTPAGPTIMPLIRQIQTAVMPNGTPHPTAAIVPPGPEAGLIYTPYEYPYTLAPATSILEYPIEPSGVLGAVATKVRRHDMRVHPYQRIVTADRAATGN

Variants of: B1
Details: with spag5_human SPAG5, Q96R06

| effect of a mutation on the interaction | Variant |
| --- | --- |
| with no effect | K201N |

Variants of: B2
Details: with il2rg_human IL2RG

| effect of a mutation on the interaction | Variant |
| --- | --- |
| with no effect | A115T |
| with no effect | R74Q |

Variants of: B3
Details: with fam9b_human FAM9B

| effect of a mutation on the interaction | Variant |
| --- | --- |
| with no effect | M102V |

Variants of: B4
Details: with ccdb1_human CCNDBP1, O95273
Chain of ccdb1_human CCNDBP1, O95273 (O95273 whole entry): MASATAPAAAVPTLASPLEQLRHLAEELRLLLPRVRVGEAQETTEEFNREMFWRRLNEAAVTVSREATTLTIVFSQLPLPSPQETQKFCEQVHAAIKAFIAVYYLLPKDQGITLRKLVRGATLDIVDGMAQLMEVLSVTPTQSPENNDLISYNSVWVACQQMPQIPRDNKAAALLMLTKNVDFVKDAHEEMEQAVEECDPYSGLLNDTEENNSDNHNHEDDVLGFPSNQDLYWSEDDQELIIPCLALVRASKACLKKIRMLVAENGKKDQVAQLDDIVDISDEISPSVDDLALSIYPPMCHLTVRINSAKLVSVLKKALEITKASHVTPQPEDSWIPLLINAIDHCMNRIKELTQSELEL

| effect of a mutation on the interaction | Variant |
| --- | --- |
| with no effect | M136L |

Variants of: B5
Details: with tri23_human TRIM23, P36406
Chain of tri23_human TRIM23, P36406 (P36406 whole entry): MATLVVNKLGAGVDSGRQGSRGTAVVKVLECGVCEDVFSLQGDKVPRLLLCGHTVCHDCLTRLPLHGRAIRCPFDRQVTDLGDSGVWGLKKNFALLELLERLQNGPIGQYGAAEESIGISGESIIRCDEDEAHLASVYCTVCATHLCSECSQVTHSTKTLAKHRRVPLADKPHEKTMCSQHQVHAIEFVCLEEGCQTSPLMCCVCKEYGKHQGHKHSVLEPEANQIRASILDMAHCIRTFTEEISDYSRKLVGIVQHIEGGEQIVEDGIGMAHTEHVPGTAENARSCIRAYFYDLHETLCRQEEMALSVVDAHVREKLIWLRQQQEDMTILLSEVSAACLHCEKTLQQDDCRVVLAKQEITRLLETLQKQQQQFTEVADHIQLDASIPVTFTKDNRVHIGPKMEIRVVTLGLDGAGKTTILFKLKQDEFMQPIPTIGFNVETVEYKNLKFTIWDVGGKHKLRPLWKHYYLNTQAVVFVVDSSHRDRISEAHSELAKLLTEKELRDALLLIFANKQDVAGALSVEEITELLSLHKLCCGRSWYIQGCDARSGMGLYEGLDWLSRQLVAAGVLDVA

| effect of a mutation on the interaction | Variant |
| --- | --- |
| with no effect | R342H |

Variants of: B5
Details: with clk2_human CLK2, P49760
Chain of clk2_human CLK2, P49760 (P49760 whole entry, looked up): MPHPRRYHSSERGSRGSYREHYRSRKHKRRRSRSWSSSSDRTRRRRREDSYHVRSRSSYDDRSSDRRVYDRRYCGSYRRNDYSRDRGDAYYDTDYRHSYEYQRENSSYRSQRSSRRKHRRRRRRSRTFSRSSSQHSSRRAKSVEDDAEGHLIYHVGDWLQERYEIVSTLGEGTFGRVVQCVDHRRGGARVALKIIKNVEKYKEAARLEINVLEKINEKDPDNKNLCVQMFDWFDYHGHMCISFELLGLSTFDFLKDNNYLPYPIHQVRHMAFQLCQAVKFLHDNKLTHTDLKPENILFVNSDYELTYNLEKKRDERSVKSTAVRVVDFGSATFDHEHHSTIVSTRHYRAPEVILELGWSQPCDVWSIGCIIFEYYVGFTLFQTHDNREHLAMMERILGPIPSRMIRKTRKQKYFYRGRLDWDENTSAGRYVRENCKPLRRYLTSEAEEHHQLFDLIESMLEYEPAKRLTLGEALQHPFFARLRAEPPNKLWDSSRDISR

| effect of a mutation on the interaction | Variant |
| --- | --- |
| with no effect | R342H |

Variants of: B6
Details: with utp11_human UTP11, Q9Y3A2

| effect of a mutation on the interaction | Variant |
| --- | --- |
| with no effect | A89V |

Variants of: B7
Details: with hnrpk_human HNRNPK

| effect of a mutation on the interaction | Variant |
| --- | --- |
| with no effect | R336Q |

Variants of: B7
Details: with fubp3_human FUBP3, Q96I24
Chain of fubp3_human FUBP3, Q96I24 (Q96I24 whole entry): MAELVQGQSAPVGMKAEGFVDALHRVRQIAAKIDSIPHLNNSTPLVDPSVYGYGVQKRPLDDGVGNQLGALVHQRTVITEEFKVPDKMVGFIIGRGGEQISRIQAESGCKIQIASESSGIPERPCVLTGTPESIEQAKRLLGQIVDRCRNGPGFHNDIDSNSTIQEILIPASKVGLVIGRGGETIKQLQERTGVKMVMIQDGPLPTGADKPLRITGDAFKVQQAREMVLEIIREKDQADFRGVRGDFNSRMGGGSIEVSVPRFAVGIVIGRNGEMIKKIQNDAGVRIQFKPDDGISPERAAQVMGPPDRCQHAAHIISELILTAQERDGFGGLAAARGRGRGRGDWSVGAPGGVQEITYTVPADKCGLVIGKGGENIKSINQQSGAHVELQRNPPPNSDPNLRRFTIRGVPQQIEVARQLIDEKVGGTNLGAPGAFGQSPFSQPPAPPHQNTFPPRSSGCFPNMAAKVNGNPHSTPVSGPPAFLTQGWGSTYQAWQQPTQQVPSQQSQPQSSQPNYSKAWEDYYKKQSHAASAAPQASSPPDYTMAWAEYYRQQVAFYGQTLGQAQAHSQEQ

| effect of a mutation on the interaction | Variant |
| --- | --- |
| with no effect | R336Q |

Variants of: B7
Details: with rbpms_human RBPMS

| effect of a mutation on the interaction | Variant |
| --- | --- |
| with no effect | R336Q |
